± gives the standard deviation of the averaged measurements.
Assay: total protein half-life in vivo (active degradation + dilution); higher = more stable protein
[1] = E. coli NCM3722 delta-clpP delta-lon delta-hslV, growth: N-lim chemostat, doubling time 6 h
[2] = E. coli NCM3722 delta-clpP, growth: N-lim chemostat, doubling time 6 h
[3] = E. coli NCM3722 delta-hslV, growth: N-lim chemostat, doubling time 6 h
[4] = E. coli NCM3722 delta-lon, growth: N-lim chemostat, doubling time 6 h
[5] = E. coli NCM3722 delta-smpB, growth: N-lim chemostat, doubling time 6 h
[6] = wild type E. coli NCM3722, growth: C-lim chemostat, doubling time 3 h
[7] = wild type E. coli NCM3722, growth: C-lim chemostat, doubling time 6 h
[8] = wild type E. coli NCM3722, growth: C-lim chemostat, doubling time 12 h
[9] = wild type E. coli NCM3722, growth: N-lim chemostat, doubling time 6 h
[10] = wild type E. coli NCM3722, growth: N-lim chemostat, doubling time 12 h
[11] = wild type E. coli NCM3722, growth: P-lim chemostat, doubling time 6 h
[12] = wild type E. coli NCM3722, growth: P-lim chemostat, doubling time 12 h

Sequence: MAQRDYVRRSQPAPSRRKKSTSRKKQRNLPAVSPAMVAIAAAVLVTFIGGLYFITHHKKEESETLQSQKVTGNGLPPKPEERWRYIKELESRQPGVRAPTEPSAGGEVKTPEQLTPEQRQLLEQMQADMRQQPTQLVEVPWNEQTPEQRQQTLQRQRQAQQLAEQQRLAQQSRTTEQSWQQQTRTSQAAPVQAQPRQSKPASSQQPYQDLLQTPAHTTAQSKPQQAAPVARAADAPKPTAEKKDERRWMVQCGSFRGAEQAETVRAQLAFEGFDSKITTNNGWNRVVIGPVKGKENADSTLNRLKMAGHTNCIRLAAGG
- total protein half-life in vivo [1]: 4.824 ± 0.04 h
- total protein half-life in vivo [2]: 6.54 ± 1.9 h
- total protein half-life in vivo [3]: 5.87 ± 0.74 h
- total protein half-life in vivo [4]: 5.94 ± 0.43 h
- total protein half-life in vivo [5]: 4.76 ± 0.2 h
- total protein half-life in vivo [6]: 3 ± 0.038 h
- total protein half-life in vivo [7]: 5.351 ± 0.053 h
- total protein half-life in vivo [8]: 9.17 ± 0.79 h
- total protein half-life in vivo [9]: 5.27 ± 0.25 h
- total protein half-life in vivo [10]: 10.2 ± 0.24 h
- total protein half-life in vivo [11]: 4.421 ± 0.02 h
- total protein half-life in vivo [12]: 9.11 ± 0.63 h

Sequence: MAQRIFTLILLLCSTSVFAGLFDAPGRSQFVPADQAFAFDFQQNQHDLNLTWQIKDGYYLYRKQIRITPEHAKIADVQLPQGVWHEDEFYGKSEIYRDRLTLPVTINQASAGATLTVTYQGCADAGFCYPPETKTVPLSEVVANNAAPQPVSVPQQEQPTAQLPFSALWALLIGIGIAFTPCVLPMYPLISGIVLGGKQRLSTARALLLTFIYVQGMALTYTALGLVVAAAGLQFQAALQHPYVLIGLAIVFTLLAMSMFGLFTLQLPSSLQTRLTLMSNRQQGGSPGGVFVMGAIAGLICSPCTTAPLSAILLYIAQSGNMWLGGGTLYLYALGMGLPLMLITVFGNRLLPKSGPWMEQVKTAFGFVILALPVFLLERVIGDVWGLRLWSALGVAFFGWAFITSLQAKRGWMRIVQIILLAAALVSVRPLQDWAFGATHTAQTQTHLNFTQIKTVDELNQALVEAKGKPVMLDLYADWCVACKEFEKYTFSDPQVQKALADTVLLQANVTANDAQDVALLKHLNVLGLPTILFFDGQGQEHPQARVTGFMDAETFSAHLRDRQP
- total protein half-life in vivo [1]: 6.33 ± 0.17 h
- total protein half-life in vivo [2]: 6.16 ± 0.66 h
- total protein half-life in vivo [3]: 5.61 ± 0.96 h
- total protein half-life in vivo [4]: 6.37 ± 0.69 h
- total protein half-life in vivo [5]: 5.76 ± 0.13 h
- total protein half-life in vivo [7]: 5.22 ± 0.15 h
- total protein half-life in vivo [8]: 13.2 ± 1 h
- total protein half-life in vivo [9]: 6.08 ± 0.72 h
- total protein half-life in vivo [10]: 11.9 ± 0.37 h
- total protein half-life in vivo [11]: 5.82 ± 0.19 h
- total protein half-life in vivo [12]: 12.35 ± 0.1 h

Sequence: MAQRVQLTATVSENQLGQRLDQALAEMFPDYSRSRIKEWILDQRVLVNGKVCDKPKEKVLGGEQVAINAEIEEEARFEPQDIPLDIVYEDEDIIIINKPRDLVVHPGAGNPDGTVLNALLHYYPPIADVPRAGIVHRLDKDTTGLMVVAKTVPAQTRLVESLQRREITREYEAVAIGHMTAGGTVDEPISRHPTKRTHMAVHPMGKPAVTHYRIMEHFRVHTRLRLRLETGRTHQIRVHMAHITHPLVGDPVYGGRPRPPKGASEAFISTLRKFDRQALHATMLRLYHPISGIEMEWHAPIPQDMVELIEVMRADFEEHKDEVDWL
- total protein half-life in vivo [1]: 5.82 ± 0.6 h
- total protein half-life in vivo [2]: 5.7 ± 0.94 h
- total protein half-life in vivo [3]: 5.65 ± 0.66 h
- total protein half-life in vivo [4]: 5.51 ± 0.46 h
- total protein half-life in vivo [5]: 4.66 ± 0.21 h
- total protein half-life in vivo [6]: 3.66 ± 0.34 h
- total protein half-life in vivo [7]: 5.83 ± 0.07 h
- total protein half-life in vivo [8]: 9.95 ± 1.4 h
- total protein half-life in vivo [9]: 5.63 ± 0.2 h
- total protein half-life in vivo [10]: 8.47 ± 0.64 h
- total protein half-life in vivo [11]: 5.72 ± 0.12 h
- total protein half-life in vivo [12]: 11.2 ± 0.25 h

Sequence: MAQVINTNSLSLITQNNINKNQSALSSSIERLSSGLRINSAKDDAAGQAIANRFTSNIKGLTQAARNANDGISVAQTTEGALSEINNNLQRVRELTVQATTGTNSESDLSSIQDEIKSRLDEIDRVSGQTQFNGVNVLAKNGSMKIQVGANDNQTITIDLKQIDAKTLGLDGFSVKNNDTVTTSAPVTAFGATTTNNIKLTGITLSTEAATDTGGTNPASIEGVYTDNGNDYYAKITGGDNDGKYYAVTVANDGTVTMATGATANATVTDANTTKATTITSGGTPVQIDNTAGSATANLGAVSLVKLQDSKGNDTDTYALKDTNGNLYAADVNETTGAVSVKTITYTDSSGAASSPTAVKLGGDDGKTEVVDIDGKTYDSADLNGGNLQTGLTAGGEALTAVANGKTTDPLKALDDAIASVDKFRSSLGAVQNRLDSAVTNLNNTTTNLSEAQSRIQDADYATEVSNMSKAQIIQQAGNSVLAKANQVPQQVLSLLQG
- total protein half-life in vivo [1]: > 8 h
- total protein half-life in vivo [3]: > 8 h
- total protein half-life in vivo [4]: > 8 h
- total protein half-life in vivo [5]: > 8 h
- total protein half-life in vivo [6]: 0.717 ± 0.2 h
- total protein half-life in vivo [7]: 0.724 ± 0.37 h
- total protein half-life in vivo [8]: 0.956 ± 0.59 h
- total protein half-life in vivo [9]: 6.3 ± 0.12 h
- total protein half-life in vivo [11]: > 8 h
- total protein half-life in vivo [12]: > 16 h

Sequence: MARARGRGRRDLKSEINIVPLLDVLLVLLLIFMATAPIITQSVEVDLPDATESQAVSSNDNPPVIVEVSGIGQYTVVVEKDRLERLPPEQVVAEVSSRFKANPKTVFLIGGAKDVPYDEIIKALNLLHSAGVKSVGLMTQPI [P0ABV6]
- total protein half-life in vivo [2]: 5.42 ± 0.13 h
- total protein half-life in vivo [3]: 6.44 ± 0.99 h
- total protein half-life in vivo [4]: 5.7 ± 0.25 h
- total protein half-life in vivo [5]: 5.74 ± 0.59 h
- total protein half-life in vivo [6]: 3.106 ± 0.028 h
- total protein half-life in vivo [7]: 5.686 ± 0.01 h
- total protein half-life in vivo [8]: 11.9 ± 0.7 h
- total protein half-life in vivo [9]: 5.73 ± 0.26 h
- total protein half-life in vivo [10]: 12.6 ± 0.73 h
- total protein half-life in vivo [11]: 5.45 ± 0.66 h
- total protein half-life in vivo [12]: 11.81 ± 0.036 h

Sequence: MARAVHRSGLVALGIATALMASCAFAAKDVVVAVGSNFTTLDPYDANDTLSQAVAKSFYQGLFGLDKEMKLKNVLAESYTVSDDGITYTVKLREGIKFQDGTDFNAAAVKANLDRASDPANHLKRYNLYKNIAKTEAIDPTTVKITLKQPFSAFINILAHPATAMISPAALEKYGKEIGFYPVGTGPYELDTWNQTDFVKVKKFAGYWQPGLPKLDSITWRPVADNNTRAAMLQTGEAQFAFPIPYEQATLLEKNKNIELMASPSIMQRYISMNVTQKPFDNPKVREALNYAINRPALVKVAFAGYATPATGVVPPSIAYAQSYKPWPYDPVKARELLKEAGYPNGFSTTLWSSHNHSTAQKVLQFTQQQLAQVGIKAQVTAMDAGQRAAEVEGKGQKESGVRMFYTGWSASTGEADWALSPLFASQNWPPTLFNTAFYSNKQVDDFLAQALKTNDPAEKTRLYKAAQDIIWQESPWIPLVVEKLVSAHSKNLTGFWIMPDTGFSFEDADLQ
- total protein half-life in vivo [1]: 5.029 ± 0.012 h
- total protein half-life in vivo [2]: 5.36 ± 0.42 h
- total protein half-life in vivo [3]: 6.42 ± 0.61 h
- total protein half-life in vivo [4]: 6.43 ± 0.089 h
- total protein half-life in vivo [5]: 5.72 ± 0.071 h
- total protein half-life in vivo [6]: 3.21 ± 0.061 h
- total protein half-life in vivo [7]: 6.6 ± 0.26 h
- total protein half-life in vivo [8]: 13 ± 0.86 h
- total protein half-life in vivo [9]: 6.04 ± 0.39 h
- total protein half-life in vivo [10]: 13.2 ± 0.28 h
- total protein half-life in vivo [11]: 5.85 ± 0.27 h
- total protein half-life in vivo [12]: 13.3 ± 0.87 h

Sequence: MARIIVVTSGKGGVGKTTSSAAIATGLAQKGKKTVVIDFDIGLRNLDLIMGCERRVVYDFVNVIQGDATLNQALIKDKRTENLYILPASQTRDKDALTREGVAKVLDDLKAMDFEFIVCDSPAGIETGALMALYFADEAIITTNPEVSSVRDSDRILGILASKSRRAENGEEPIKEHLLLTRYNPGRVSRGDMLSMEDVLEILRIKLVGVIPEDQSVLRASNQGEPVILDINADAGKAYADTVERLLGEERPFRFIEEEKKGFLKRLFGG [P0AEZ3]
- total protein half-life in vivo [1]: 5.31 ± 0.21 h
- total protein half-life in vivo [2]: 5.22 ± 0.21 h
- total protein half-life in vivo [3]: 5.442 ± 0.017 h
- total protein half-life in vivo [4]: 5.66 ± 0.15 h
- total protein half-life in vivo [5]: 4.87 ± 0.023 h
- total protein half-life in vivo [6]: 2.94 ± 0.16 h
- total protein half-life in vivo [7]: 5.54 ± 0.16 h
- total protein half-life in vivo [8]: 10.1 ± 0.8 h
- total protein half-life in vivo [9]: 5.17 ± 0.36 h
- total protein half-life in vivo [10]: 9.98 ± 0.53 h
- total protein half-life in vivo [11]: 4.93 ± 0.2 h
- total protein half-life in vivo [12]: 9.29 ± 0.22 h
